Data: paper PMC2475632

T1: Dpo4 (DNA polymerase IV) (Sulfolobus solfataricus, UniProt Q97W02 1-352)
T1 sequence: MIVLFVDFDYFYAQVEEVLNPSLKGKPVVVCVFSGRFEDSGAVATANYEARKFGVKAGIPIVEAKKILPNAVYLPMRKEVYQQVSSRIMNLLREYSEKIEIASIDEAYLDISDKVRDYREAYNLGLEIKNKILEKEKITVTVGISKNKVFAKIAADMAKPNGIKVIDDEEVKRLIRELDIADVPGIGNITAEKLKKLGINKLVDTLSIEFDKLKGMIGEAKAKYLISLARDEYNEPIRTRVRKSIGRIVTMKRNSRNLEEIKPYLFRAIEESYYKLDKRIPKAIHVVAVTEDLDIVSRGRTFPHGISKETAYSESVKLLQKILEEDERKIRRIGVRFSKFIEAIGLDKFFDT

B1: 21-mer/44DDP (dsDNA)
DNA 1: GTCCCTGTTCGGGCGCCAGGA
DNA 2: GATCACGAGACTAGCCTCTGGTCTCCTGGCGCCCGAACAGGGAC
modifications: cisplatin-d(GpG) intrastrand cross-link at template G20-G21 (5' to 3' numbering; GG inferred from primer 23/24 sites)
B2: 24-mer/44CTL (dsDNA)
DNA 1: GTCCCTGTTCGGGCGCCAGGAGAC
DNA 2: B1 DNA 2
B3: 22-mer/44DDP (dsDNA)
DNA 1: GTCCCTGTTCGGGCGCCAGGAG
DNA 2: B1 DNA 2
modifications: cisplatin-d(GpG) intrastrand cross-link at template G20-G21
B4: 22-mer/44CTL (dsDNA)
DNA 1: GTCCCTGTTCGGGCGCCAGGAG
DNA 2: B1 DNA 2
B5: 26-mer/44DDP (dsDNA)
DNA 1: GTCCCTGTTCGGGCGCCAGGAGACCA
DNA 2: B1 DNA 2
modifications: cisplatin-d(GpG) intrastrand cross-link at template G20-G21
B6: 23-mer/44DDP (dsDNA)
DNA 1: GTCCCTGTTCGGGCGCCAGGAGA
DNA 2: B1 DNA 2
modifications: cisplatin-d(GpG) intrastrand cross-link at template G20-G21
B7: 25-mer/44DDP (dsDNA)
DNA 1: GTCCCTGTTCGGGCGCCAGGAGACC
DNA 2: B1 DNA 2
modifications: cisplatin-d(GpG) intrastrand cross-link at template G20-G21
B8: 26-mer/44CTL (dsDNA)
DNA 1: GTCCCTGTTCGGGCGCCAGGAGACCA
DNA 2: B1 DNA 2
B9: 27-mer/44DDP (dsDNA)
DNA 1: GTCCCTGTTCGGGCGCCAGGAGACCAG
DNA 2: B1 DNA 2
modifications: cisplatin-d(GpG) intrastrand cross-link at template G20-G21
B10: 23-mer/44CTL (dsDNA)
DNA 1: GTCCCTGTTCGGGCGCCAGGAGA
DNA 2: B1 DNA 2
B11: 21-mer/44CTL (dsDNA)
DNA 1: GTCCCTGTTCGGGCGCCAGGA
DNA 2: B1 DNA 2
B12: 25-mer/44CTL (dsDNA)
DNA 1: GTCCCTGTTCGGGCGCCAGGAGACC
DNA 2: B1 DNA 2
B13: 24-mer/44DDP (dsDNA)
DNA 1: GTCCCTGTTCGGGCGCCAGGAGAC
DNA 2: B1 DNA 2
modifications: cisplatin-d(GpG) intrastrand cross-link at template G20-G21
B14: 27-mer/44CTL (dsDNA)
DNA 1: GTCCCTGTTCGGGCGCCAGGAGACCAG
DNA 2: B1 DNA 2

molecular target: T1, Dpo4 (DNA polymerase IV); test: EMSA

Binder | Kd [nM]
B1 | 8 ± 1
B2 | 8 ± 1
B3 | 21 ± 4
B4 | 16 ± 3
B5 | 12 ± 2
B6 | 56 ± 9
B7 | 17 ± 4
B8 | 11 ± 2
B9 | 17 ± 3
B10 | 17 ± 2
B11 | 18 ± 3
B12 | 5 ± 1
B13 | 26 ± 3
B14 | 13 ± 4
